System: Escherichia coli TOP10
Assay: shrunken log2 fold change of peptide-encoding DNA abundance (4.5 h post-induction vs induction); higher = less antimicrobial activity (less host growth inhibition)
Details: time post-induction: 4.5 h; library: site-saturation at positions 5, 18, 19, 20
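Note: peptides expressed intracellularly from a pBAD plasmid library in pooled LB shake-flask culture, induced with 0.3% L-arabinose, DNA abundance read by NGS, three biological replicates, DESeq2 with apeglm shrinkage.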

Row | Sequence | shrunken log2 fold change
1 | RRIRKRPPRLPRPRPRPMICPRP | 0.0303
2 | RRIRKRPPRLPRPRPRPMIDPRP | 0.21
3 | RRIRKRPPRLPRPRPRPMIRPRP | 0.134
4 | RRIRKRPPRLPRPRPRPMKGPRP | -0.156
5 | RRIRKRPPRLPRPRPRPMLDPRP | 0.16
6 | RRIRKRPPRLPRPRPRPMLLPRP | -0.0797
7 | RRIRKRPPRLPRPRPRPMNIPRP | -0.213
8 | RRIRKRPPRLPRPRPRPMNYPRP | 0.474
9 | RRIRKRPPRLPRPRPRPMRWPRP | 1.41
10 | RRIRKRPPRLPRPRPRPMSLPRP | 0.474
11 | RRIRKRPPRLPRPRPRPMSRPRP | 0.0843
12 | RRIRKRPPRLPRPRPRPMTVPRP | 0.0686
13 | RRIRKRPPRLPRPRPRPMVQPRP | 0.208
14 | RRIRKRPPRLPRPRPRPMVVPRP | -0.0348
15 | RRIRKRPPRLPRPRPRPMYHPRP | -0.0356
16 | RRIRKRPPRLPRPRPRPMYKPRP | -0.0655
17 | RRIRKRPPRLPRPRPRPNCCPRP | 0.179
18 | RRIRKRPPRLPRPRPRPNCNPRP | 0.00173
19 | RRIRKRPPRLPRPRPRPNDHPRP | -0.177
20 | RRIRKRPPRLPRPRPRPNEMPRP | 0.0671
21 | RRIRKRPPRLPRPRPRPNEWPRP | 0.0498
22 | RRIRKRPPRLPRPRPRPNFYPRP | 0.0337
23 | RRIRKRPPRLPRPRPRPNGEPRP | 0.189
24 | RRIRKRPPRLPRPRPRPNGMPRP | 0.0655
25 | RRIRKRPPRLPRPRPRPNHQPRP | -0.376

Row | Sequence | shrunken log2 fold change
26 | RRIRKRPPRLPRPRPRPNIWPRP | 0.519
27 | RRIRKRPPRLPRPRPRPNKDPRP | 0.0544
28 | RRIRKRPPRLPRPRPRPNMKPRP | 0.125
29 | RRIRKRPPRLPRPRPRPNMSPRP | -0.0139
30 | RRIRKRPPRLPRPRPRPNNDPRP | 0.0263
31 | RRIRKRPPRLPRPRPRPNPAPRP | -0.000888
32 | RRIRKRPPRLPRPRPRPNQHPRP | 0.0449
33 | RRIRKRPPRLPRPRPRPNSAPRP | 0.393
34 | RRIRKRPPRLPRPRPRPNSEPRP | 2.18
35 | RRIRKRPPRLPRPRPRPNSIPRP | -0.0805
36 | RRIRKRPPRLPRPRPRPNSQPRP | 0.27
37 | RRIRKRPPRLPRPRPRPNTYPRP | 0.0436
38 | RRIRKRPPRLPRPRPRPNWNPRP | -0.191
39 | RRIRKRPPRLPRPRPRPNWVPRP | -0.087
40 | RRIRKRPPRLPRPRPRPNWWPRP | -0.382
41 | RRIRKRPPRLPRPRPRPNYCPRP | -0.0369
42 | RRIRKRPPRLPRPRPRPNYDPRP | -0.359
43 | RRIRKRPPRLPRPRPRPPARPRP | 1.16
44 | RRIRKRPPRLPRPRPRPPCPPRP | 0.399
45 | RRIRKRPPRLPRPRPRPPDGPRP | 0.992
46 | RRIRKRPPRLPRPRPRPPDKPRP | 0.474
47 | RRIRKRPPRLPRPRPRPPDYPRP | 0.145
48 | RRIRKRPPRLPRPRPRPPEFPRP | 0.0984
49 | RRIRKRPPRLPRPRPRPPFHPRP | 0.307
50 | RRIRKRPPRLPRPRPRPPFLPRP | -0.0158

Row | Sequence | shrunken log2 fold change
51 | RRIRKRPPRLPRPRPRPPFQPRP | 0.119
52 | RRIRKRPPRLPRPRPRPPGTPRP | 0.794
53 | RRIRKRPPRLPRPRPRPPHCPRP | 1.19
54 | RRIRKRPPRLPRPRPRPPHDPRP | 0.559
55 | RRIRKRPPRLPRPRPRPPHEPRP | 0.491
56 | RRIRKRPPRLPRPRPRPPKWPRP | 0.0966
57 | RRIRKRPPRLPRPRPRPPLAPRP | 1.06
58 | RRIRKRPPRLPRPRPRPPLIPRP | 0.285
59 | RRIRKRPPRLPRPRPRPPMRPRP | 0.918
60 | RRIRKRPPRLPRPRPRPPNAPRP | 0.711
61 | RRIRKRPPRLPRPRPRPPNNPRP | 0.364
62 | RRIRKRPPRLPRPRPRPPNRPRP | 0.151
63 | RRIRKRPPRLPRPRPRPPQLPRP | 0.488
64 | RRIRKRPPRLPRPRPRPPRVPRP | 0.648
65 | RRIRKRPPRLPRPRPRPPTLPRP | 1.53
66 | RRIRKRPPRLPRPRPRPPTYPRP | 0.0129
67 | RRIRKRPPRLPRPRPRPPWSPRP | 0.154
68 | RRIRKRPPRLPRPRPRPPYEPRP | 0.0908
69 | RRIRKRPPRLPRPRPRPPYHPRP | 0.0273
70 | RRIRKRPPRLPRPRPRPQASPRP | 0.353
71 | RRIRKRPPRLPRPRPRPQAYPRP | -0.216
72 | RRIRKRPPRLPRPRPRPQCNPRP | -0.0696
73 | RRIRKRPPRLPRPRPRPQDPPRP | 1.55
74 | RRIRKRPPRLPRPRPRPQELPRP | 0.329
75 | RRIRKRPPRLPRPRPRPQEMPRP | -0.00136

Row | Sequence | shrunken log2 fold change
76 | RRIRKRPPRLPRPRPRPQENPRP | 0.256
77 | RRIRKRPPRLPRPRPRPQEWPRP | -0.0193
78 | RRIRKRPPRLPRPRPRPQFDPRP | -0.0088
79 | RRIRKRPPRLPRPRPRPQFQPRP | -0.0733
80 | RRIRKRPPRLPRPRPRPQFYPRP | -0.555
81 | RRIRKRPPRLPRPRPRPQGKPRP | 0.0114
82 | RRIRKRPPRLPRPRPRPQGRPRP | -0.078
83 | RRIRKRPPRLPRPRPRPQHSPRP | -0.288
84 | RRIRKRPPRLPRPRPRPQIPPRP | -0.0346
85 | RRIRKRPPRLPRPRPRPQISPRP | -0.0814
86 | RRIRKRPPRLPRPRPRPQIWPRP | 0.138
87 | RRIRKRPPRLPRPRPRPQKDPRP | 0.00486
88 | RRIRKRPPRLPRPRPRPQMHPRP | 0.0713
89 | RRIRKRPPRLPRPRPRPQMRPRP | 0.292
90 | RRIRKRPPRLPRPRPRPQNTPRP | 0.00556
91 | RRIRKRPPRLPRPRPRPQPHPRP | 0.554
92 | RRIRKRPPRLPRPRPRPQQWPRP | 0.105
93 | RRIRKRPPRLPRPRPRPQRLPRP | 0.308
94 | RRIRKRPPRLPRPRPRPQRNPRP | 0.0463
95 | RRIRKRPPRLPRPRPRPQSEPRP | 0.0585
96 | RRIRKRPPRLPRPRPRPQTAPRP | 0.385
97 | RRIRKRPPRLPRPRPRPQTEPRP | -0.0229
98 | RRIRKRPPRLPRPRPRPQTNPRP | 0.271
99 | RRIRKRPPRLPRPRPRPQVNPRP | -0.124
100 | RRIRKRPPRLPRPRPRPQVWPRP | -0.0233

Row | Sequence | shrunken log2 fold change
101 | RRIRKRPPRLPRPRPRPQWAPRP | -0.0368
102 | RRIRKRPPRLPRPRPRPQWYPRP | -0.145
103 | RRIRKRPPRLPRPRPRPQYPPRP | 0.131
104 | RRIRKRPPRLPRPRPRPQYRPRP | -0.185
105 | RRIRKRPPRLPRPRPRPRAHPRP | 0.68
106 | RRIRKRPPRLPRPRPRPRAYPRP | -0.382
107 | RRIRKRPPRLPRPRPRPRCFPRP | 0.412
108 | RRIRKRPPRLPRPRPRPRCTPRP | 0.555
109 | RRIRKRPPRLPRPRPRPRDHPRP | 0.494
110 | RRIRKRPPRLPRPRPRPRDIPRP | 0.246
111 | RRIRKRPPRLPRPRPRPRDLPRP | 0.255
112 | RRIRKRPPRLPRPRPRPRENPRP | 0.559
113 | RRIRKRPPRLPRPRPRPREPPRP | 1.39
114 | RRIRKRPPRLPRPRPRPRFAPRP | 0.614
115 | RRIRKRPPRLPRPRPRPRGCPRP | 0.128
116 | RRIRKRPPRLPRPRPRPRGEPRP | 0.764
117 | RRIRKRPPRLPRPRPRPRGGPRP | 0.848
118 | RRIRKRPPRLPRPRPRPRGKPRP | 0.126
119 | RRIRKRPPRLPRPRPRPRGMPRP | 0.357
120 | RRIRKRPPRLPRPRPRPRHYPRP | -0.0867
121 | RRIRKRPPRLPRPRPRPRKNPRP | 0.876
122 | RRIRKRPPRLPRPRPRPRMHPRP | 0.557
123 | RRIRKRPPRLPRPRPRPRNNPRP | 0.198
124 | RRIRKRPPRLPRPRPRPRPFPRP | 0.612
125 | RRIRKRPPRLPRPRPRPRRKPRP | 0.969

Row | Sequence | shrunken log2 fold change
126 | RRIRKRPPRLPRPRPRPRSQPRP | 0.051
127 | RRIRKRPPRLPRPRPRPRTGPRP | 0.376
128 | RRIRKRPPRLPRPRPRPRWEPRP | 0.0207
129 | RRIRKRPPRLPRPRPRPRWYPRP | 0.275
130 | RRIRKRPPRLPRPRPRPRYCPRP | -0.142
131 | RRIRKRPPRLPRPRPRPRYHPRP | -0.17
132 | RRIRKRPPRLPRPRPRPRYIPRP | -0.268
133 | RRIRKRPPRLPRPRPRPRYQPRP | -0.0143
134 | RRIRKRPPRLPRPRPRPSAAPRP | 0.624
135 | RRIRKRPPRLPRPRPRPSCEPRP | 0.401
136 | RRIRKRPPRLPRPRPRPSCKPRP | 0.034
137 | RRIRKRPPRLPRPRPRPSCQPRP | 0.176
138 | RRIRKRPPRLPRPRPRPSDMPRP | 0.0199
139 | RRIRKRPPRLPRPRPRPSELPRP | 0.141
140 | RRIRKRPPRLPRPRPRPSFNPRP | 0.0137
141 | RRIRKRPPRLPRPRPRPSFQPRP | 0.0564
142 | RRIRKRPPRLPRPRPRPSGDPRP | 0.485
143 | RRIRKRPPRLPRPRPRPSGKPRP | -0.424
144 | RRIRKRPPRLPRPRPRPSHQPRP | -0.146
145 | RRIRKRPPRLPRPRPRPSKAPRP | -0.0406
146 | RRIRKRPPRLPRPRPRPSKEPRP | 0.0111
147 | RRIRKRPPRLPRPRPRPSLCPRP | -0.239
148 | RRIRKRPPRLPRPRPRPSMHPRP | 0.401
149 | RRIRKRPPRLPRPRPRPSMLPRP | -0.0569
150 | RRIRKRPPRLPRPRPRPSMVPRP | -0.13
